We go through 1 molecule from PMC12277278 (Frontiers in Immunology, 2025).

This assay addresses T1, recombinant DbpA from B. burgdorferi strain 297 (DbpA297) (Borrelia burgdorferi strain 297, UniProt O50917).
T1 construct: also called recombinant DbpA297
As to the kind of experiment: multiplex microsphere immunoassay (MIA, Luminex); recombinant antigens coupled to MagPlex-C microspheres; diluted MAb incubated 1 h at RT; PE-labelled secondary antibody; MFI read on a FlexMap 3D. The settings on record: both partners purified.

T1 sequence (O50917 30-168): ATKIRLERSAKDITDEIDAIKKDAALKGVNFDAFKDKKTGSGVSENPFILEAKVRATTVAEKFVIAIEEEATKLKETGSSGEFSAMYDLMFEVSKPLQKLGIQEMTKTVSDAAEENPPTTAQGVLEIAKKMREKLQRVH

B1: F945 IgG (recombinant human monoclonal antibody, IgG1/kappa) (antibody, V domains shown)
VH: QVQLVESGGGVVQPGRSLRLSCAASGFSFNTYAFHWVRQGPGKGLEWVAGISFDGSKRYYADSVKGRFTVSRDNSKNTLYLQMNGLIPEDTAVYYCARDRRIVVVSAPGYWGQGTLVTVSS
VL: DIQMTQSPSSLSASVGDRVTITCQASHDISNYLNWYQQKPGKAPKLLIFDASYLETGVPSRFSGSGSGTDFTFTINSLQSEDIATYYCQQYDTLLSFGGGTRVEIK
Regarding B1, the binding result is “no binding”.
